What was measured:
Assay in all cases: cell-based or functional assay
[1] = target: T1, SARS-CoV-2 Spike, Delta variant (SARS-CoV-2, UniProt P0DTC2 14-1273)
[2] = target: T2, SARS-CoV-2 Spike, Beta variant (SARS-CoV-2, UniProt P0DTC2 14-1273)
[3] = target: T3, SARS-CoV-2 Spike, Alpha variant (SARS-CoV-2, UniProt P0DTC2 14-1273)
[4] = target: T4, SARS-CoV-2 Spike, Gamma variant (SARS-CoV-2, UniProt P0DTC2 14-1273)
[5] = target: T1, SARS-CoV-2 Spike, Delta variant; remark: listed apart in the source
[6] = target: T2, SARS-CoV-2 Spike, Beta variant; remark: listed apart in the source
[7] = target: T3, SARS-CoV-2 Spike, Alpha variant; remark: listed apart in the source
[8] = target: SARS-CoV-2 Spike, Lambda variant (SARS-CoV-2, UniProt P0DTC2 14-1273)
[9] = target: SARS-CoV-2 Spike, Kappa variant (SARS-CoV-2, UniProt P0DTC2 14-1273)
[10] = target: SARS-CoV-2 Spike, Epsilon variant (SARS-CoV-2, UniProt P0DTC2 14-1273)
[11] = target: SARS-CoV-2 Spike, Eta variant (SARS-CoV-2, UniProt P0DTC2 14-1273)
[12] = target: SARS-CoV-2 Spike, Zeta variant (SARS-CoV-2, UniProt P0DTC2 14-1273)
[13] = target: T4, SARS-CoV-2 Spike, Gamma variant; remark: listed apart in the source
[14] = target: SARS-CoV-2 Spike, Iota variant (SARS-CoV-2, UniProt P0DTC2 14-1273)

B1: MR22950 antibody (antibody, V domains shown)
VH: QLQLQESGPGLVKPSEPLSLTCAVSGGFIGTNWWTWIRQPPGKGLEWIGRISGSVGSTSYNPSLKSRVTISRDTSKNQFSLNLNSLTAADTAVYYCAREGRLDTLDWGQGVLVIVSS
VL: QSVLTQPPSASEAARKSVTISCSGSSSNIGSYSVSWYQQFPGTPPKLLIYFNDQRASGVSDRFSGSKSGTSASLAISGLQTEDEADYYCAGWDDSLNGVLFGGGTRLTVLG
Neut50 (ng/mL), authentic live virus, plaques on Vero cells [1]: 20.3 ng/mL | Neut50 (ng/mL), authentic live virus, plaques on Vero cells [2]: 6.9 ng/mL | Neut50 (ng/mL), authentic live virus, plaques on Vero cells [3]: 4.7 ng/mL | Neut50 (ng/mL), authentic live virus, plaques on Vero cells [4]: 12.7 ng/mL | Neut50 [5]: 7.8 ng/mL | Neut50 [6]: 33 ng/mL | Neut50 [7]: 7.3 ng/mL | Neut50 [8]: 19 ng/mL | Neut50 [9]: 15 ng/mL | Neut50 [10]: 10.8 ng/mL | Neut50 [11]: 16 ng/mL | Neut50 [12]: 3.8 ng/mL | Neut50 [13]: 105 ng/mL | Neut50 [14]: 0.5 ng/mL
